Data published in paper PMC5286830, “Prokaryotic ubiquitin-like protein remains intrinsically disordered when covalently attached to proteasomal target proteins” (BMC Structural Biology, 2017).
pKd: −log10 of the molar value.

Target: MtbDop-F (Mycobacterium tuberculosis deamidase of Pup / depupylase, randomly fluorescein-labeled) (Mycobacterium tuberculosis) (UniProt P9WNU9)
Experiment: MST; Monolith NT.115, starting temperature 19 C; 30 nM MtbDop-F with serial 1:1 dilutions of MtbPup or MtbPup ~ FabD-3KR from 25 uM to 15 nM; 50 mM HEPES-NaOH pH 7.5, 150 mM NaCl, 1 mM MgCl2, 10% glycerol, 0.01% Tween-20; T-jump analysis, fit assuming 1:1 binding

How did the pKd turn out when “MtbPup (prokaryotic ubiquitin-like protein from Mycobacterium tuberculosis, free) (from UniProt P9WHN5 1-64) (natural protein)” was run?
Its pKd is 7.84.
